Laboratory results reported in the nanobody polyreactivity screen of Harvey et al. (2022).

assay: yeast display, Sf9 membrane polyspecificity reagent, FACS + sequencing; frameworks hold sequencing errors
How it was run: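 Using colony PCR, genes from sorted yeast display clones were amplified, then sequenced on MiSeq at 2 × 250 and filtered by CDR length. The clones had been stained with 10% biotinylated, detergent-solubilized Sf9 membrane reagent for 1 hour at 4 °C and sorted by FACS into low and high (top ~1%) gates on anti-HA and streptavidin fluorescence. Polyreactivity labels come from the gate of origin.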

Row | Sequence | polyreactivity (PSR sort gate)
1 | QVQLVESGGGLVQAGGSLRLSCAASGRTFRAYAMGWYRQAPGKETELVASISRRGGSTYYADSVKGRFTISRDNAKNTVYLQMNSLKPEDSAVYYCAASDNYLQYDYWGQGTQVTVSS | high polyreactivity
2 | QVQLVESGGGLVQAGGSLRLSCAASGRTFRAYVMGWYRQAPGKERELVAAFTGDGGSTYYADSVKGRFTISRDNAKNTVYLQMNSLKPEDTAVYYCAAGYVTVYGYYEYWGQGTQVTVSS | high polyreactivity
3 | QVQLVESGGGLVQAGGSLRLSCAASGRTFRDYTMGWYRQAPGNERELVAAITSTGDTNYADSVKGRFTISRDNAKNTVYLQMNSLKPEDTALNYCATQTGEEYQAPLIYDYWGQGTQVTVSS | low polyreactivity
4 | QVQLVESGGGLVQAGGSLRLSCAASGRTFRFNAMGWYRQAPGKESELVAAISSSGRTYYADSVKGRFTISRDNAKNTVYLQMNSLKPEDTAVYYCNKDPYLKLKMDYWGQGTQVTGSS | high polyreactivity
5 | QVQLVESGGGLVQAGGSLRLSCAASGRTFRFYALGWYRQAPGKEREFVAAISRSVGSTYYADSVKGRFTISRDNAKHTVYLQMNSLKPEDTAVYYCAARVFRGLGEYYWGQGTQVTVSS | high polyreactivity
6 | QVQLVESGGGLVQAGGSLRLSCAASGRTFRFYAMGWYRQAPGKERELVAAISASGGGTYYADSVKGRFTISRDNAKHTVYLQMNCLKPEDTAVYYCATRRSYKYYWGQGTQVTVSS | high polyreactivity
7 | QVQLVESGGGLVQAGGSLRLSCAASGRTFRGNAMGWYRQAPGKERELVATITFSGGSTYYADSVKWRFTISRDNAKNTVYLQMNSLKPEDTAVYYCAVRGLHLVWVPFGYDYWGQGTQVTVSS | low polyreactivity
8 | QVQLVESGGGLVQAGGSLRLSCAASGRTFRGYAMGWYRQAPGKEREFVAAITWTSGSTYYADSVKGRFTISRDNAKNTVYLQMNSLKPEDTAVYYCAARVYSQALRLWGNNYWGQGTQVTVSS | high polyreactivity
9 | QVQLVESGGGLVQAGGSLRLSCAASGRTFRGYAMGWYRQAPGKERELVAAITSGGSTNYADSVKGRFTISRDNAKNTVYLQMNSLKPEDTAVYYCAAGRSTGQYRYYYWGQGTQVTVSS | high polyreactivity
10 | QVQLVESGGGLVQAGGSLRLSCAASGRTFRGYAMGWYRQAPGKERELVAAITWSGGRTYYADSVKGRFTISRDNAKNTVYLQMNSLKPEDTAVYYCATSPGRWGWGYDYEYWGQGTQVTVSS | low polyreactivity
11 | QVQLVESGGGLVQAGGSLRLSCAASGRTFRGYSMGWYRQAPGKERELVAAISTNGGSTRYADSVKGRFTISRDNSKNTVYLQMNSLKPEDTAVYYCARRDYWGQGTQVTVSS | high polyreactivity
12 | QVQLVESGGGLVQAGGSLRLSCAASGRTFRHNALGWYRQAPGKERELVAAISKSGGRTYYADSVKGRFTISRDNAKNTVYLQMNSLKPEDTAVYYCAAPLYVSTSGEVGYWGQGTQVTVSS | high polyreactivity
13 | QVQLVESGGGLVQAGGSLRLSCAASGRTFRINAMGWYRQAPGKERELVAAINDGGDTYADSVKGRFTISRDNANNTVYLQMNSLKPEDTAVYYCAAPLGGGARWGRWWLYDSWGQGTQVTVSS | low polyreactivity
14 | QVQLVESGGGLVQAGGSLRLSCAASGRTFRINAMGWYRQAPGKERELVAAITRGDTNYADSVKGRFTISRDNAKNTVYLQMNSLKPEDTAVYYCNADLSVRYPVFRELDYWGQGTQVTVSS | low polyreactivity
15 | QVQLVESGGGLVQAGGSLRLSCAASGRTFRIYAMGWYLQAPGKERELVAPISGRGGNTYYADSVKGRFTISRDNAKNTVYLHMNSLKPEDTAVYYCAADDATAYRVDGFKYDYWGQGTLVTVSS | high polyreactivity
16 | QVQLVESGGGLVQAGGSLRLSCAASGRTFRIYAMGWYRQAPGKERELVAAIRWSGGTTYYADSVKGGFTISRDNAKNTVYLQMNSLNPDDTAVYYCAADSTNRYDYWGQGTQVTVSS | high polyreactivity
17 | QVQLVESGGGLVQAGGSLRLSCAASGRTFRKNTMGWYRQAPGKEREFVATISSRGGSTFYADSVKGRFTISRDNAKNTVYLQMNSLKPEDTAVYYCNAVYRYSLKPIYDYWGQGTQVTVSS | high polyreactivity
18 | QVQLVESGGGLVQAGGSLRLSCAASGRTFRKYAMGGYRHAPGKEREFVASITWSGGSTYYADSVKGRFTISRDNAKNTVYLQMNSLKPEDTAVYFCAAESWFKYVYWGQGTQVTVSS | low polyreactivity
19 | QVQLVESGGGLVQAGGSLRLSCAASGRTFRKYAMGWYRQAPGKERELVAAINRGGTTKYADSVKGRFTISRDNAKNTVYLEMNSLKPEDTAVYYCAVDRQRAGYPKQYDSWGQGTQVTVSS | low polyreactivity
20 | QVQLVESGGGLVQAGGSLRLSCAASGRTFRKYTMGWYRQAPGKERELVAASASRGGSTYYADSVKGRFTISRDNAKNTVYLQMNSLKPEDTAVYYCATDYITPSSDGDYWGQGTQVTVSS | high polyreactivity
21 | QVQLVESGGGLVQAGGSLRLSCAASGRTFRLYAMGWYRQAPGKERELVAAITRGGRTNYADSVKGRFTISRDNAKNTVYLQMYSLKPEDTAVYYCARDFVAYGDDYWGQGTQVTVSS | low polyreactivity

Row | Sequence | polyreactivity (PSR sort gate)
22 | QVQLVESGGGLVQAGGSLRLSCAASGRTFRLYAMGWYRQAPGKERELVARISRGGSTYYADSVKGRFTISRDNAKNTVYLQMNSLKPEDTAVYYCAAEGWGLSHRYDYWGQGTQVTVSS | high polyreactivity
23 | QVQLVESGGGLVQAGGSLRLSCAASGRTFRNYAMGWYRQAPGKERELVAAIRSGVRTYYADSVKGRFTISRDNAKNTVYLQMNSLKPEDTAVYYCAVATGLLYKSHGYWGQGTQVTVSS | low polyreactivity
24 | QVQLVESGGGLVQAGGSLRLSCAASGRTFRNYAMGWYRQAPGKERELVAAISSGGRTNYADSVKGRFTISRDNAKNTVYLQMNSLKPEDTADYYCAVRRGAFSTYPGYNYWGQGTQVTVSS | high polyreactivity
25 | QVQLVESGGGLVQAGGSLRLSCAASGRTFRNYAMGWYRQAPGKERELVAGITSGGSTNYADSVKGRFTISRDNAKNTVYLQMNSLKPEDTAVYYCNAVRPFYWFWYYGYWGQGTQVTVSS | low polyreactivity
26 | QVQLVESGGGLVQAGGSLRLSCAASGRTFRPYAMGWYRPAPGKERELVAAITGGTRTYYADSVKGRFTISRDNAKNTVYLQMNSLKPEDTAVYYCAKGDFFSKHDYWGQGTQVTVSS | low polyreactivity
27 | QVQLVESGGGLVQAGGSLRLSCAASGRTFRPYAMGWYRQAPGKERELVAAISSRGSSTYYADSVKGRFTISRDNAKNTVYLQMNSLKPEDTAVYYCAARSYWGGLRYDYWGQGTQVTVSS | high polyreactivity
28 | QVQLVESGGGLVQAGGSLRLSCAASGRTFRPYAMGWYRQAPGKERELVAAITSGVSTYYADSVKGRFTISRDNAKNTVYLQMNSLKPEDTAVYYCARGYLRSYRWSYTTRMGYWVQGTQVTVSS | high polyreactivity
29 | QVQLVESGGGLVQAGGSLRLSCAASGRTFRPYAMGWYRQAPGKERELVARITSGGGRTYYADSVKGRFTISRDNAKNTVYLQMNSLKPEDTAVYYCNKAIYSLYRDGYTNFDYWGQGTQVTVSS | high polyreactivity
30 | QVQLVESGGGLVQAGGSLRLSCAASGRTFRPYAMGWYRQAPGKERELVAVISYRGGSTYYADSVKGRFTISRDNAKNTVYLQMNSLKPEDTAVYYCNAQAGWFSRLYYWGQGTQVTVSS | high polyreactivity
31 | QVQLVESGGGLVQAGGSLRLSCAASGRTFRPYTMGWYRQAPGKERELVAAISASGGRTYYADSVKGRFTISRDNAKNTVYLQMNSLKPEDTAVYYCAARVRDSLVYGGWDDYWGQGTQVTVSS | high polyreactivity
32 | QVQLVESGGGLVQAGGSLRLSCAASGRTFRQNVMGWYRQAPGKERELVAAITASGGNTYYADSVKGRFTISRDNAKNTVYLQMNSLKPEDTAVYYCNAVPYLAMDYWGQGTQVTVSS | high polyreactivity
33 | QVQLVESGGGLVQAGGSLRLSCAASGRTFRRNAMGWYREAPGKERELVASINRGGGKNYADSVKGRFTISRDNAKNTVYLQMNSLKPEDTAVYYCAAVPIAADKANGYDYWGQGTQVTVSS | low polyreactivity
34 | QVQLVESGGGLVQAGGSLRLSCAASGRTFRRNVMGWYRQAPGKERELVAAISSGANTNYADSVKGRFTISRDNAKNTVYLQMNSLKPEDTAVYYCAAGEGWRSRTFDYWGQGTQVTVSS | low polyreactivity
35 | QVQLVESGGGLVQAGGSLRLSCAASGRTFRRTAMGWYRQAPGKERELVAAISSRGGSTYYADSVKWRFTISRDNAKNTVYLQMNSLKPEDTAVYYCNRVLTPIWYYVPLYSQPTYYYWGQGTQVTVSS | high polyreactivity
36 | QVQLVESGGGLVQAGGSLRLSCAASGRTFRRYAKGWYRQAPGKERELVATIRSGDNTNYADSVKGRFTISRDNAKNTVYLQMNSLKPEDTAVYYCNRSPKSGQVTYLYSVNAHYDYWGQGTQVSVSS | low polyreactivity
37 | QVQLVESGGGLVQAGGSLRLSCAASGRTFRRYAMGWYRQAPGKERELVAAITWGAGSTRYADSVKGRFTISRDNAKNTVYLQMNSLKPEDTAVYYCAAENTRAYGMYYWGQGTQVTVSS | high polyreactivity
38 | QVQLVESGGGLVQAGGSLRLSCAASGRTFRRYAMGWYRQAPGKERELVASISRTGGSTYYADSVKGRFTISRDNSKNTVYLQMNSLKPEDTAVFYCNAGPSVGWYNYWGQGTQVTVSS | high polyreactivity
39 | QVQLVESGGGLVQAGGSLRLSCAASGRTFRRYNMGWYRQAPGKERELVAAITTSGGSTYYSDSVKGRFTISRDNAKNTVYLQMNSLIPEDTAVYYCAATRRYSGDYWGQGTQVSVSS | high polyreactivity
40 | QVQLVESGGGLVQAGGSLRLSCAASGRTFRRYTMGWYRQAPGKERELVATISKTGGSTYYADSVKGRFTISRDNAKNTVYLQMNSLKPEDTAVYYCAARSVALFIMYYWGQGTQVTVSS | high polyreactivity
41 | QVQLVESGGGLVQAGGSLRLSCAASGRTFRRYVMGWYRQAPGKERELVAAIRWTGGSTYYADSVKGRFTISRDNAKNTVYLQMNSLKPEDTAVYYCAASSYIGYGYLGQGTQVTVSS | high polyreactivity
